Assays:
[1] = biological target: T1, human folate receptor gamma (FRγ), recombinant, C-terminal 6xHis (human, UniProt P41439 23-245, limits assumed); test: direct ELISA, plates coated with 1 µg/mL FR isoform, dilution series of culture supernatant
T1 construct: Transiently expressed in 293F cells and purified; coated on ELISA plates

[2] = biological target: T2, human folate receptor beta (FRβ), recombinant, C-terminal 6xHis (human, UniProt P14207 17-230, limits assumed); test: as above
T2 construct: Transiently expressed in 293F cells and purified; coated on ELISA plates
T2 sequence (P14207 other isoform, or with tags, fused parts or gaps limits assumed): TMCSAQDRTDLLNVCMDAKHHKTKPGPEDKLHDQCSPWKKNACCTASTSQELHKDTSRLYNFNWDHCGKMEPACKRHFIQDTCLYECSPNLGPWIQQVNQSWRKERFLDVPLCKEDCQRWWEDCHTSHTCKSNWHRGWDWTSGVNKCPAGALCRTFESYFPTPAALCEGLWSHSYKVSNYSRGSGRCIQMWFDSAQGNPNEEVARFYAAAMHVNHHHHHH

[3] = biological target: T3, recombinant purified FRα (ECL assay calibrator) (human, UniProt P15328 25-234); test: ECL sandwich, FRα calibrator; capture 6A2.G7; binder = detection Ab
T3 construct: Calibrator of the ECL sandwich assays; also called FRα calibrator; FRα standard
T3 sequence (P15328 25-234 limits assumed): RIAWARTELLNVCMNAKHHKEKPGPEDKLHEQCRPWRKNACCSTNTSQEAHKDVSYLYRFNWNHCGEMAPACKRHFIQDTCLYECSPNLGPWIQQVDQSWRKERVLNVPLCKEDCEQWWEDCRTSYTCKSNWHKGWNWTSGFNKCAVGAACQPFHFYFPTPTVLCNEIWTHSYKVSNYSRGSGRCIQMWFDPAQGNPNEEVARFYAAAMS

[4] = biological target: T3, recombinant purified FRα (ECL assay …); test: ECL sandwich on FRα, signal to background; capture 6A2.G7; binder = detection Ab
[5] = biological target: T3, recombinant purified FRα (ECL assay …); test: ECL sandwich, FRα calibrator; capture 5C12.H8; binder = detection Ab
[6] = biological target: T3, recombinant purified FRα (ECL assay …); test: ECL sandwich, FRα calibrator; capture 2F11.F8; binder = detection Ab
[7] = biological target: T3, recombinant purified FRα (ECL assay …); test: ECL sandwich on FRα, signal to background; capture 26A9.C4; binder = detection Ab
[8] = biological target: T3, recombinant purified FRα (ECL assay …); test: ECL sandwich, FRα calibrator; capture 30G6.G6.G4.E9; binder = detection Ab
[9] = biological target: T3, recombinant purified FRα (ECL assay …); test: ECL sandwich, FRα calibrator; capture 28H12.G9; binder = detection Ab
[10] = biological target: T3, recombinant purified FRα (ECL assay …); test: ECL sandwich, FRα calibrator; capture 24H8.D3; binder = detection Ab
[11] = biological target: T3, recombinant purified FRα (ECL assay …); test: ECL sandwich, FRα calibrator; capture 26A9.C4; binder = detection Ab
[12] = biological target: T3, recombinant purified FRα (ECL assay …); test: ECL sandwich, FRα calibrator; capture 24H8.F3; binder = detection Ab
[13] = biological target: T3, recombinant purified FRα (ECL assay …); test: ECL sandwich on FRα, signal to background; capture 5C12.H8; binder = detection Ab
[14] = biological target: T3, recombinant purified FRα (ECL assay …); test: ECL sandwich on FRα, signal to background; capture 1D2.G8.G10; binder = detection Ab
[15] = biological target: T3, recombinant purified FRα (ECL assay …); test: ECL sandwich on FRα, signal to background; capture 24H8.D3; binder = detection Ab
[16] = biological target: T3, recombinant purified FRα (ECL assay …); test: ECL sandwich on FRα, signal to background; capture 28H12.G9; binder = detection Ab
[17] = biological target: T3, recombinant purified FRα (ECL assay …); test: ECL sandwich on FRα, signal to background; capture 19D2.G9; binder = detection Ab
[18] = biological target: T3, recombinant purified FRα (ECL assay …); test: ECL sandwich on FRα, signal to background; capture 30G6.G6.G4.E9; binder = detection Ab
[19] = biological target: T3, recombinant purified FRα (ECL assay …); test: ECL sandwich, FRα calibrator; capture 19D2.G9; binder = detection Ab
[20] = biological target: T3, recombinant purified FRα (ECL assay …); test: ECL sandwich on FRα, signal to background; capture 24H8.F3; binder = detection Ab
[21] = biological target: T4, recombinant human folate receptor alpha (rhFRα) (human, UniProt P15328 25-234); test: BIAcore (SPR), format not described
T4 construct: CHO: Ig kappa leader, C-terminal 6xHis replacing the GPI attachment site; also called FOLR1; FOLR-1
T4 sequence (P15328 25-234 limits assumed): as above

[22] = biological target: T3, recombinant purified FRα (ECL assay …); test: ECL sandwich, FRα calibrator; capture 19D4.B7; binder = detection Ab
[23] = biological target: T3, recombinant purified FRα (ECL assay …); test: ECL sandwich on FRα, signal to background; capture 1C6.E12.G8; binder = detection Ab
[24] = biological target: T3, recombinant purified FRα (ECL assay …); test: ECL sandwich, FRα calibrator; capture 1D2.G8.G10; binder = detection Ab
[25] = biological target: T3, recombinant purified FRα (ECL assay …); test: ECL sandwich, FRα calibrator; capture 1C6.E12.G8; binder = detection Ab
[26] = biological target: T3, recombinant purified FRα (ECL assay …); test: ECL sandwich on FRα, signal to background; capture 19D4.B7; binder = detection Ab
[27] = biological target: T3, recombinant purified FRα (ECL assay …); test: ECL sandwich on FRα, signal to background; capture 2F11.F8; binder = detection Ab
[28] = biological target: T3, recombinant purified FRα (ECL assay …); test: ECL sandwich, FRα calibrator; capture 1A8.G11.E7; binder = detection Ab
[29] = biological target: T3, recombinant purified FRα (ECL assay …); test: ECL sandwich on FRα, signal to background; capture 1A8.G11.E7; binder = detection Ab

T1 sequence (P41439 other isoform, or with tags, fused parts or gaps limits assumed): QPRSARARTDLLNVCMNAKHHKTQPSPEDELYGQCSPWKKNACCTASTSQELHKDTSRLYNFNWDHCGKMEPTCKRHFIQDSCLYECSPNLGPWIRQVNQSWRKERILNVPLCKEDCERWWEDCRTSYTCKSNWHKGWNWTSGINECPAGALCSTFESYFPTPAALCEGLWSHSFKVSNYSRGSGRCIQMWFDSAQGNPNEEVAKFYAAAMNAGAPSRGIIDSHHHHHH

binding result [1] | binding result [2] | Specific signal at 500 pg/mL [3] | Average of S/B [4] | Specific signal at 500 pg/mL [5] | Specific signal at 500 pg/mL [6] | Average of S/B [7] | Specific signal at 500 pg/mL [8] | Specific signal at 500 pg/mL [9] | Specific signal at 500 pg/mL [10] | Specific signal at 500 pg/mL [11] | Specific signal at 500 pg/mL [12] | Average of S/B [13] | Average of S/B [14] | Average of S/B [15] | Average of S/B [16] | Average of S/B [17] | Average of S/B [18] | Specific signal at 500 pg/mL [19] | Average of S/B [20] | Binder | further results
no binding | no binding | 92 | 1 | 100 | 283 | 4 | 2410 | 432 | 6620 | 347 | 3890 | 1 | 5 | 109 | 7 | 205 | 31 | 11700 | 63 | Monoclonal antibody 6A2.G7 (antibody, mouse IgG1, V domains shown, Murine IgG1 kappa from hybridoma; also called ATCC PTA-123093) VH: GADLVKPGASVKMSCKASGYTFSRYNMHWVKQTPGQGLEWIGTIYPGNGDTSYNEKFKGKATLTADKSSSIVYMQVSSLTSEASAVYYCARDYGSRYALDYWGQGTSVTVSS VL: SSLSASLGDRVTISCRASQDISNYLNWYQQKPDGTVKLLIYYTSRLHSGVPSRFSGSGSGTDYSLTISNLEQEDIATYFCQQGNTLPYTFGGGTKLEIK | Kd [21]: 15 nM; Specific signal at 500 pg/mL [22]: 10800; Average of S/B [23]: 3; Specific signal at 500 pg/mL [24]: 347; Specific signal at 500 pg/mL [25]: 217; Average of S/B [26]: 145; Average of S/B [27]: 5; Specific signal at 500 pg/mL [28]: 6000; Average of S/B [29]: 89
no binding | no binding | 596 | 9 | 100 | 123 | 1 | 5290 | 68 | 71 | 78 | 60 | 1 | 1 | 1 | 1 | 1 | 61 | 77 | 1 | Monoclonal antibody 5C12.H8 (antibody, mouse IgG2b, V domains shown, Murine IgG2b kappa from hybridoma; also called ATCC PTA-123095) VH: GPGLVKPSQSLSLTCSVTGYSITSGYYWIWIRQFPGNKLEWMGYISYDGSNNYNPSLKNRISITRDTSKNQFFLKLNSVTTEDTATYYCARGNYYAMDYWGQGTSVTVSS VL: not shown | Kd [21]: 10.8 nM; Specific signal at 500 pg/mL [22]: 18400; Average of S/B [23]: 1; Specific signal at 500 pg/mL [24]: 57; Specific signal at 500 pg/mL [25]: 58; Average of S/B [26]: 253; Average of S/B [27]: 1; Specific signal at 500 pg/mL [28]: 66; Average of S/B [29]: 1
no binding | no binding | 967 | 19 | 70 | 67 | 1 | 10900 | 92 | 74 | 73 | 75 | 1 | 1 | 1 | 1 | 1 | 144 | 80 | 1 | Monoclonal antibody 1C6.E12.G8 (antibody, mouse IgG1, V domains shown, Murine IgG1 kappa from hybridoma; also called ATCC PTA-123091) VH: SGARELVKPGASVKLSCKTSGFTFNSSYITWLKQKPGQSLEWIAWIYAGNGGTTYNQKFTGKAQLTVDTSSSTAYMQFSSLTTEDSAIYYCASETYTNYWYFDVWGSGTTVTVSS VL: QSPASLSASVGETVTITCRASGNIHNYLAWYQQKQGKSPQLLVYNAKTLADGVPSRFSGSGSGTQYSLKINSLQPEDFGSYYCQHFWSTPYTFGGGTKLEIK | Kd [21]: 9.76 nM; Specific signal at 500 pg/mL [22]: 37500; Average of S/B [23]: 1; Specific signal at 500 pg/mL [24]: 53; Specific signal at 500 pg/mL [25]: 86; Average of S/B [26]: 449; Average of S/B [27]: 1; Specific signal at 500 pg/mL [28]: 54; Average of S/B [29]: 1

— patent publication US20180148504A1 (EISAI R AND D MANAGEMENT, published 2018)
